In publication PMC10831263:

Biological target: T1, his-tagged NCOA4 (383–522nd) recombinant protein, WT (human), Q13772
T1 chain: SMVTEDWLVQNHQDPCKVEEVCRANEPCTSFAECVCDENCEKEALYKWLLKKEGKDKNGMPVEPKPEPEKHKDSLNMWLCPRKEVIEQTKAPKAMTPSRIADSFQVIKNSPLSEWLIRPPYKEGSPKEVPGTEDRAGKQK
Assay: nonreducing gel electrophoresis; purified his-tagged NCOA4 (383–522nd) WT or mutants on a nonreducing gel, with or without β-ME (10 mM) or DTT (5 mM); the reductants converted the dimer into monomers
Conditions: remark: other sources report otherwise

- stoichiometry N: 2
B1: his-tagged NCOA4 (383–522nd) recombinant protein, WT, Q13772-1 383-522 (domain or fragment)
chain: SMVTEDWLVQNHQDPCKVEEVCRANEPCTSFAECVCDENCEKEALYKWLLKKEGKDKNGMPVEPKPEPEKHKDSLNMWLCPRKEVIEQTKAPKAMTPSRIADSFQVIKNSPLSEWLIRPPYKEGSPKEVPGTEDRAGKQK
